Among the data in the RNAGym collection of RNA variant scans (doi:10.7554/elife.90254) are self-cleavage values, retold here.

B1: LINE1-full (parent)
chain: UACGUAGGUGGUUUUCCCCUGAUAGUGCUAAGGGGGCCUGGAAGUUUGGACUGGGCAGAGCUCAACACAGCGUGGCAAAGUGGCUGUGGCUAGACUGCCUCUCUGGAUUCCUCGUCACUCAGCAGGGCAUCUCUGAGAGAAAUGCC

This data set covers variants of B1. Description: self-cleavage, relative activity (ratio to wild type); higher = more cleavage; in vitro, sequencing; the parent is a self-cleaving ribozyme.
As for A69U A138U, the self-cleavage is 0.09. As for A69G G139U, the figure is 0.36; as for C71U A124U, 1; as for C71U A124G, 0.28.

As to C71U U102C, the self-cleavage is 0.18. For A69C A77U, the self-cleavage was found to be 0.09. As for A67U U73C, the self-cleavage worked out at 0.18. As for C71U U134A, the figure is 0.36; as for A69U U85A, 0.5; as for A69G A138G, 0.56.

As to A69G U132C, the self-cleavage stood at 0.71. For U73A U115C, the self-cleavage turned out to be 1.9. Then G72C C111U, with 1.1; and U73A U112C, with 1.56; and U73A U112G, with 1.53. Then U73A U112A, with 2.03. As for A69U C99G, the figure is 0.09. C71U U81A: the self-cleavage turned out to be 0.88. In the case of C71U U81C, the self-cleavage came out at 0.74. For the variant G72A U132C, the self-cleavage amounted to 1.13. Then G70A A136G, with 0.11. For the variant A69G C131A, the self-cleavage was found to be 1.01. Then G70U C90G, with 0.02; and A69C A117G, with 0.11; and A69G U109A, with 0.43.

G72A U143C: the self-cleavage was 1.65.

As to C68U G88A, the self-cleavage worked out at 0.05. Then G72U A94G, with 0.46; and A67U U134A, with 0.08. As for C71U A141U, the figure is 1.46; as for C71U A141G, 0.68; as for G70A A92G, 0.04.

Take A69G C146U: the self-cleavage came out at 0.51.

For C71G A136G, the self-cleavage is 0.28. Regarding A69G U73C, the self-cleavage is 0.59.

As to U73A A79G, the self-cleavage came out at 1.2. Then U73A A79C, with 2.16; and A69G A78U, with 0.63; and A67U U130A, with 0.13. Consider A69G U91A, for which the self-cleavage was determined as 0.16. Then G72A A92U, with 0.69; and A69G G114A, with 0.99; and C68U U81A, with 0.18.

Turning to C68U U81C, the self-cleavage is 0.18. Then G72A A141U, with 1.42. Then G72A A141G, with 1.54; and C68U G74A, with 0.2; and G70U A79G, with 0.03. As for A67U U81A, the figure is 0.07; as for A69U G114U, 0.06.

Consider U73A U91A, for which the self-cleavage was found to be 0.72. As for C71U A79G, the figure is 0.2. As for G72U U73A, the figure is 1.33. As to G72A C120U, the self-cleavage is 1.31. G72U A138G: the self-cleavage was 1.55. For the variant G72U C76U, the self-cleavage came out at 2.1. Then G70A U100C, with 0.29. As for A67U G74A, the figure is 0.08; as for A69G C128A, 0.14; as for C68G A141G, 0.04. On to G72U U132C, for which the self-cleavage amounted to 1.11. As for A69U C101U, the figure is 0.03; as for U73A U102C, 0.97; as for C68U U134C, 0.17. Then U73A U81G, with 1.85; and U73A U81C, with 1.09. As for A67U U102C, the figure is 0.1; as for A67U U102A, 0.11; as for A69U A78G, 0.04.

As to A67U G75A, the self-cleavage is 0.09.

For the variant G72A A94G, the self-cleavage is 0.33. As for A69G G125U, the figure is 0.3; as for U73A U87C, 0.06; as for G70A C128A, 0.04. Then G72A A107G, with 1.36; and C71U C101A, with 1.14; and A69G C133A, with 0.47. On to C71A A78G, for which the self-cleavage is 0.19. As for A69G A141G, the figure is 0.44. Then C71A A117G, with 0.15; and G72U C113U, with 1.15.

For A67U C71U, the self-cleavage turned out to be 0.02. With U73A G86A, the self-cleavage worked out at 0.04.

With G70U A138G, the self-cleavage was 0.1.

As to A69G A140U, the self-cleavage came out at 0.47. A69G A140G: the self-cleavage was 0.36. As for G70A A107G, the self-cleavage is 0.08. As for A69G U85C, the figure is 0.51. For the variant U73A C113A, the self-cleavage stood at 0.23.

For C68A U87A, the self-cleavage turned out to be 0.01.

In the case of A69G C145U, the self-cleavage turned out to be 0.55.

Turning to G72A A138G, the self-cleavage came to 1.51. In the case of U73A U109A, the self-cleavage is 0.92. On to G70A U115G, for which the self-cleavage is 0.11. As for G70A U134C, the figure is 0.15; as for C71A A124G, 0.13.

For A69G G82A, the self-cleavage was determined as 0.68. Then A69U A136G, with 0.06; and C71U A129G, with 0.91; and C71A A140G, with 0.23.

For the variant G70U U130C, the self-cleavage turned out to be 0.08. In the case of G70A A140G, the self-cleavage came out at 0.06.

On to C68A C146U, for which the self-cleavage stood at 0.06.

As to G70A A124C, the self-cleavage is 0.21. Then A69U A79C, with 0.12; and A69U A79U, with 0.08; and C68U U115A, with 0.2. In the case of C68U A129G, the self-cleavage worked out at 0.06. Then C71A A77G, with 0.18; and U73A G82A, with 1.74. Then U73A G82U, with 1.65; and A69G A117U, with 0.64. As for A69G A117G, the figure is 0.5.

Consider C68A U73C, for which the self-cleavage worked out at 0.05.

As to U73A G135A, the self-cleavage amounted to 1.66. As for G70A U91A, the figure is 0.1; as for A69C G93A, 0.01; as for G70A U85G, 0.01. With A67U U96A, the self-cleavage was 0.02. Then A69U G127C, with 0.12; and A69G A79C, with 0.17. C71A G93U: the self-cleavage turned out to be 0.03. Take A69G U102C: the self-cleavage is 0.47. Then A69G U102A, with 0.93. Then G72C U112C, with 0.98; and A69G U134C, with 0.44; and A69G U134A, with 0.37. With A69G A107G, the self-cleavage was found to be 0.37. As for A69G U112A, the figure is 0.74. As for A69G U112C, the figure is 0.52; as for A69G U112G, 1.15; as for G70U A140G, 0.04.

Turning to A67U G88U, the self-cleavage came out at 0.02. A69U U130C: the self-cleavage amounted to 0.05. Regarding A69U U130A, the self-cleavage was 0.09.

Regarding C68U C123G, the self-cleavage is 0.1. Then C71A C133U, with 0.08. For the variant G70C U112C, the self-cleavage worked out at 0.14. As for C71U U130A, the figure is 1.

Consider U73A G126A, for which the self-cleavage was determined as 0.57. Then A69U C120U, with 0.07; and G72A U85G, with 0.21.

As to G72A U85A, the self-cleavage amounted to 0.07.

Turning to U73A G122A, the self-cleavage was determined as 1.98.

For G70U U81C, the self-cleavage came to 0.3.

For C71U U85C, the self-cleavage was 0.06. As for C71U U85A, the figure is 0.03; as for A69G U104A, 0.2; as for A69G U104C, 0.71.

On to U73A A121G, for which the self-cleavage came out at 1.93. In the case of U73A A121U, the self-cleavage worked out at 1.28. As for A67U U104C, the figure is 0.25; as for A67U U104A, 0.03. As for A67U C84U, the figure is 0.02; as for A69C U112C, 0; as for C68U A140G, 0.16. As for C68U A140U, the figure is 0.22; as for A69G G86A, 0.03.

For G72A U108C, the self-cleavage is 1.54. As for G70U A121G, the figure is 0.27. Then G72C U134A, with 0.97; and A69G A129U, with 0.58; and A67U C133U, with 0.1. Then G70A A129G, with 0.09; and U73A C76U, with 2.51. For the variant G72A C84U, the self-cleavage came out at 0.19. Then G70C A77U, with 0.09.
